Test results from IntAct's records for PubMed 15467741.

B1: Merlin (Homo sapiens), P35240-3 (parent)
chain: MAGAIASRMSFSSLKRKQPKTFTVRIVTMDAEMEFNCEMKWKGKDLFDLVCRTLGLRETWFFGLQYTIKDTVAWLKMDKKVLDHDVSKEEPVTFHFLAKFYPENAEEELVQEITQHLFFLQVKKQILDEKIYCPPEASVLLASYAVQAKYGDYDPSVHKRGFLAQEELLPKRVINLYQMTPEMWEERITAWYAEHRGRARDEAEMEYLKIAQDLEMYGVNYFAIRNKKGTELLLGVDALGLHIYDPENRLTPKISFPWNEIRNISYSDKEFTIKPLDKKIDVFKFNSSKLRVNKLILQLCIGNHDLFMRRRKADSLEVQQMKAQAREEKARKQMERQRLAREKQMREEAERTRDELERRLLQMKEEATMANEALMRSEETADLLAEKAQITEEEAKLLAQKAAEAEQEMQRIKATAIRTEEEKRLMEQKVLEAEVLALKMAEESERRAKEADQLKQDLQEAREAERRAKQKLLEIATKPTYPPMNPIPAPLPPDIPSFNLIGDSLSFDFKDTDMKRLSMEIEKEKVEYMEKSKHLQEQLNELKTEIEALKLKERETALDILHNENSDRGGSSKHNTIKKPQAQGRRPICI
partner: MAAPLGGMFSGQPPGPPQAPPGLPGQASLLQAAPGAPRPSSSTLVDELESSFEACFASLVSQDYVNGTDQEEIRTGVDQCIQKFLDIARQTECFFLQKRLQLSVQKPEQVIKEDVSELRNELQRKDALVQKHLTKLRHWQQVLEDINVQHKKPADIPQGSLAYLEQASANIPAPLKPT
B2: Merlin (Homo sapiens), P35240-1 (parent)
chain: MAGAIASRMSFSSLKRKQPKTFTVRIVTMDAEMEFNCEMKWKGKDLFDLVCRTLGLRETWFFGLQYTIKDTVAWLKMDKKVLDHDVSKEEPVTFHFLAKFYPENAEEELVQEITQHLFFLQVKKQILDEKIYCPPEASVLLASYAVQAKYGDYDPSVHKRGFLAQEELLPKRVINLYQMTPEMWEERITAWYAEHRGRARDEAEMEYLKIAQDLEMYGVNYFAIRNKKGTELLLGVDALGLHIYDPENRLTPKISFPWNEIRNISYSDKEFTIKPLDKKIDVFKFNSSKLRVNKLILQLCIGNHDLFMRRRKADSLEVQQMKAQAREEKARKQMERQRLAREKQMREEAERTRDELERRLLQMKEEATMANEALMRSEETADLLAEKAQITEEEAKLLAQKAAEAEQEMQRIKATAIRTEEEKRLMEQKVLEAEVLALKMAEESERRAKEADQLKQDLQEAREAERRAKQKLLEIATKPTYPPMNPIPAPLPPDIPSFNLIGDSLSFDFKDTDMKRLSMEIEKEKVEYMEKSKHLQEQLNELKTEIEALKLKERETALDILHNENSDRGGSSKHNTIKKLTLQSAKSRVAFFEEL
partner: B1 partner

Variants of: B1
Conditions: with med28_human MED28, Q9H204

Row | Variant | effect of a mutation on the interaction
1 | MAGAIASRMSFSSLKRKQPKTFTVRIVTMDAEMEFNCEMKWKGKDLFDLVCRTLGLRETWFFGLQYTIKDTVAWLKMDKKVLDHDVSKEEPVTFHFLAKFYPENAEEELVQEITQHLFFLQVKKQILDEKIYCPPEASVLLASYAVQAKYGDYDPSVHKRGFLAQEELLPKRVINLYQMTPEMWEERITAWYAEHRGRARDEAEMEYLKIAQDLEMYGVNYFAIRNKKGTELLLGVDALGLHIYDPENRLTPKISFPWNEIRNISYSDKEFTIKPLDKKIDVFKFNSSKLRVNKLILQLCIGNHDLFMRRRKADSLEVQQMKAQAREEKARKQMERQRLAREKQMREEAERTRDELERRLLQMKEEATMANEALMRSEETADLLAEKAQITEEEAKLLAQKAAEAEQEMQRIKATAIRTEEEKRLMEQKVLEAEVLALKMAEESERRAKEADQLKQDLQEAREAERRAKQKLLEIATKPTYPPMNPIPAPLPPDIPSFNLIGDSLSFDFKDTDMKRLAMEIEKEKVEYMEKSKHLQEQLNELKTEIEALKLKERETALDILHNENSDRGGSSKHNTIKKPQAQGRRPICI [S518A] | increasing interaction

Variants of: B2
Conditions: with med28_human MED28, Q9H204

Row | Variant | effect of a mutation on the interaction
2 | MAGAIASRMSFSSLKRKQPKTFTVRIVTMDAEMEFNCEMKWKGKDLFDLVCRTLGLRETWFFGLQYTIKDTVAWLKMDKKVLDHDVSKEEPVTFHFLAKFYPENAEEELVQEITQHLFFLQVKKQILDEKIYCPPEASVLLASYAVQAKYGDYDPSVHKRGFLAQEELLPKRVINLYQMTPEMWEERITAWYAEHRGRARDEAEMEYLKIAQDLEMYGVNYFAIRNKKGTELLLGVDALGLHIYDPENRLTPKISFPWNEIRNISYSDKEFTIKPLDKKIDVFKFNSSKLRVNKLILQLCIGNHDLFMRRRKADSLEVQQMKAQAREEKARKQMERQRLAREKQMREEAERTRDELERRLLQMKEEATMANEALMRSEETADLLAEKAQITEEEAKLLAQKAAEAEQEMQRIKATAIRTEEEKRLMEQKVLEAEVLALKMAEESERRAKEADQLKQDLQEAREAERRAKQKLLEIATKPTYPPMNPIPAPLPPDIPSFNLIGDSLSFDFKDTDMKRLAMEIEKEKVEYMEKSKHLQEQLNELKTEIEALKLKERETALDILHNENSDRGGSSKHNTIKKLTLQSAKSRVAFFEEL [S518A] | increasing interaction
